Assay [1] has as its target T1, Recombinant purified human matriptase (amino acids 596-855) (human), Q9Y5Y6.
T1 chain: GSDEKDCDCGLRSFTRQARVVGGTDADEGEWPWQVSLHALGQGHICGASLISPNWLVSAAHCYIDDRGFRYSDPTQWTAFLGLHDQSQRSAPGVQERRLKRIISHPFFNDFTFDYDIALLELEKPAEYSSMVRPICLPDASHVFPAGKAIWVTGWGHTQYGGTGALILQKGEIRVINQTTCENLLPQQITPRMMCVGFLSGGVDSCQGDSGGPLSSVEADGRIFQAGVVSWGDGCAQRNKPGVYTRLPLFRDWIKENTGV
In words: enzyme inhibition, fluorogenic substrate Boc-Gln-Ala-Arg-AMC, Morrison tight-binding fit.

Assay [2] concerns the target T1, Recombinant purified human matriptase …. Briefly: enzyme inhibition, 1 nM matriptase, 1 µM inhibitor, Boc-Gln-Ala-Arg-AMC 50 µM.
For assay [3] the target is unchanged. In words: ratio of Ki values, enzyme inhibition.
Assay [4] deals with thrombin. Briefly: enzyme inhibition, selectivity profile, mixed model fit.
Assay [5] addresses T1, Recombinant purified human matriptase …. In words: enzyme inhibition, 1 nM enzyme, Boc-Gln-Ala-Arg-AMC substrate.
Assay [6] deals with hepsin (human), P05981. The assay is described as above.
hepsin (human), P05981, sequence (P05981 45-417 limits assumed): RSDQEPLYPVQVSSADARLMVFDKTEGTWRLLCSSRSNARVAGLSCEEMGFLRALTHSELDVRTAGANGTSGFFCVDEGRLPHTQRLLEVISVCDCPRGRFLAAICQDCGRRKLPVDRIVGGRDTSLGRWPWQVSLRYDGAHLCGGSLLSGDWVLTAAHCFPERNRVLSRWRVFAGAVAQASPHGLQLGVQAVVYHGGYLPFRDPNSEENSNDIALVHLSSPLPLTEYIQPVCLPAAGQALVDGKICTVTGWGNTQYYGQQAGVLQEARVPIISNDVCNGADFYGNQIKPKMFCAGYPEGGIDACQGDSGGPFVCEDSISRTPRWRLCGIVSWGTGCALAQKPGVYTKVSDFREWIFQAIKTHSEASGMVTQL
For assay [7], the target named is Bovine trypsin (bovine), P00760. Briefly: enzyme inhibition, selectivity profile, Morrison tight-binding fit.
Bovine trypsin (bovine), P00760, sequence (P00760 24-246): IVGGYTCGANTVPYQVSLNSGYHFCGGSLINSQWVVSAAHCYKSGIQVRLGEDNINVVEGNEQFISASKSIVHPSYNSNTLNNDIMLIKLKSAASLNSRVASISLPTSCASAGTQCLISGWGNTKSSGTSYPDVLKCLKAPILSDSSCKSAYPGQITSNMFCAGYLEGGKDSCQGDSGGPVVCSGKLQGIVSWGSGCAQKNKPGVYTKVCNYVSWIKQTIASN
Assay [8] concerns the target T2, matriptase-2 (human), Q8IU80.
T2 chain: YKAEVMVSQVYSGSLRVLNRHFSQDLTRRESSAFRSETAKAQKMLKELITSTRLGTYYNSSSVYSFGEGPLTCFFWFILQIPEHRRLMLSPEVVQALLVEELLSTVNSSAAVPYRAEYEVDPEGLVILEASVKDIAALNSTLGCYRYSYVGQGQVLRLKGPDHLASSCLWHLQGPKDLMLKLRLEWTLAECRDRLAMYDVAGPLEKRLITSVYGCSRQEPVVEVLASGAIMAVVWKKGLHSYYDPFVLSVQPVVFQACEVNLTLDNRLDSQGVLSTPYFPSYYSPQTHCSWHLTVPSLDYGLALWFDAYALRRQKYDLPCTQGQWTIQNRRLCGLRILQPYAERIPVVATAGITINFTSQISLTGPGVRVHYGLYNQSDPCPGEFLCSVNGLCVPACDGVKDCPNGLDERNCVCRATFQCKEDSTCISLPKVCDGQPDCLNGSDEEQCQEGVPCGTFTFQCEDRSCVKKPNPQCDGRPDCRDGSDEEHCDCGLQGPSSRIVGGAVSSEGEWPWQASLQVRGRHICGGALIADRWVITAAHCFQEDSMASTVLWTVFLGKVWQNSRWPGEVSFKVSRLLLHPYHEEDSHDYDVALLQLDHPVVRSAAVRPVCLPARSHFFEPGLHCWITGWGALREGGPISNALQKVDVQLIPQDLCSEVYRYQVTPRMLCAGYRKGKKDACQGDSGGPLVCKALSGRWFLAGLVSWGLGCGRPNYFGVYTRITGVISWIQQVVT
The assay is described as above.

For assay [9], the target named is T3, TMPRSS11D, O60235.
T3 chain: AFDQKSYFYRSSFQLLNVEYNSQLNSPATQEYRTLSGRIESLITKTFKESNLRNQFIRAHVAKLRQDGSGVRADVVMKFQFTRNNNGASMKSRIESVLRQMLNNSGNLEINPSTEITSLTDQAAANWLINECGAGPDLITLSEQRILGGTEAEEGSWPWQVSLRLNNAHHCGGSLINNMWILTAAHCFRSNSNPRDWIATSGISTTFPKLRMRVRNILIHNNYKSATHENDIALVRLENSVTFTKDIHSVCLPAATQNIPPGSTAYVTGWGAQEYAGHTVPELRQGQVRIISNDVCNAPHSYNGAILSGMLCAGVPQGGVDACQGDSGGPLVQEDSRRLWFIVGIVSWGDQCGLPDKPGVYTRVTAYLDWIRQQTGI
The description is as above.

Assay [10] has as its target T1, Recombinant purified human matriptase …. In words: enzyme inhibition, fluorogenic substrate Boc-Gln-Ala-Arg-AMC, mixed model fit.

Data on four molecules can be found in patent US20140086936A1.

B1: R-Q-A-(D)R ketobenzothiazole (compound 7) (peptide)
peptide: RQAR
modifications: not checked
B1: the Ki (as a rule, a measure of affinity in units of concentration, obtained from inhibition or displacement) in [1] is 4.6 nM.

B2: RQAK-ketobenzothiazole (peptide)
peptide: RQAK
modifications: not checked
On to B2, for which the Ki in [1] came to 9.5 nM. Further, in [2], the percent inhibition of matriptase activity at 1 µM is 25%. The change of Ki relative to compound 1 (orders of magnitude) in [3] is 3.

B3: RQAR-ketobenzothiazole (peptide)
peptide: RQAR
modifications: not checked
With B3, the Ki in [4] was found to be 637 nM; in assay [7], 0.97 nM; in [8], 3.3 nM; in [9], 8.4 nM. The IC50 (usually the concentration that inhibits the measured activity by half) in assay [5] came to 29 nM; in [6], 540 nM.

B4: reduced form of RQAR-ketobenzothiazole (peptide)
peptide: RQAR
modifications: not checked
On to B4, for which the Ki in assay [10] stood at 6120 nM.
